In patent US20240400715A1 (VIBRANT PHARMA, published 2024):
“And” between values parts separate entries of the source, which are not always exact repeats. Equal values may be shown once.

What was measured:
[1] = molecular target: T1, human CD3ε/δ (ACRO systems, CDD-H52W1) (human, UniProt P07766 23-126; P04234 22-105); test: BLI, antibody captured on AHC sensor, 30 C
T1 construct: bought recombinant heterodimer; also called human CD3 epsilon/delta; Human CD3ε/CD3δ

[2] = molecular target: T2, human CD3 on Jurkat cells (human, UniProt P07766 23-207; P04234 22-171; P09693 23-182); test: FACS, Jurkat cells;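 also: flow cytometric binding of bispecific antibodies to Jurkat T cells, threefold serial dilutions incubated half an hour in the cold, EC50 taken from the fitted binding curve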
T2 construct: whole, on cells; CD3 complex as on Jurkat (Clone E6-1) cells; also called CD3 expressing cells (Jurkat)
Protocol: The binding of the bispecific antibodies was tested on the CA expressing human lung adenocarcinoma cell line (H1573) and the CD3 expressing immortalized T lymphocyte line (Jurkat). The steps are as follows: the cells were harvested, counted, and resuspended in FACS buffer (PBS containing 0.1% BSA) at 2×10⁶ cells/ml. 100 μl of cell suspension was incubated in a V-bottom 96-well plate at 4° C. with 3-fold serial dilutions of bispecific antibodies (20 μg/ml-0.009 μg/ml) for 30 minutes; washed twice with pre-cooled FACS buffer. […] GraphPadPrism was used to obtain the binding curve.

[3] = molecular target: T3, human CD3ε/δ (ACRO systems, CDD-H52W1) (human, UniProt P07766 23-126; P04234 22-105); test: BLI, antibody captured, antigen in solution;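 also: bispecific antibodies captured on AHIC biosensors to a 1.5 nm loading signal, in PBST with 0.02% detergent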
T3 construct: Bought protein; also called human CD3ϵ/CD3δ; human CD3 epsilon/delta antigen
Protocol: The bispecific antibodies were diluted to 5 ag/ml, and 1.5 nm protein was coupled to the surface of the AHIC sensor chip through 0.02% PBST.

| Binder | Kd [1] | koff [1] | kon [1] | EC50 [2] | Kd [3] | koff [3] | kon [3] |
| --- | --- | --- | --- | --- | --- | --- | --- |
| HER2-CD3 bispecific antibody 501 (bispecific antibody, human IgG4 S228P, kappa, F234A L235A, VHH-hole chain assembled from VHH and hole-Fc with hinge) heavy: EVKLLESGGGLVQPKGSLKLSCAASGFTFNTYAMNWVRQAPGKGLEWVARIRSKYNNYATYYADSVKDRFTISRDDSQSILYLQMNNLKTEDTAMYYCVRHGNFGNSYVSWFAYWGQGTLVTVSSASTKGPSVFPLAPCSRSTSESTAALGCLVKDYFPEPVTVSWNSGALTSGVHTFPAVLQSSGLYSLSSVVTVPSSSLGTKTYTCNVDHKPSNTKVDKRVESKYGPPCPPCPAPEAAGGPSVFLFPPKPKDTLMISRTPEVTCVVVDVSQEDPEVQFNWYVDGVEVHNAKTKPREEQFNSTYRVVSVLTVLHQDWLNGKEYKCKVSNKGLPSSIEKTISKAKGQPREPQVYTLPPCQEEMTKNQVSLWCLVKGFYPSDIAVEWESNGQPENNYKTTPPVLDSDGSFFLYSRLTVDKSRWQEGNVFSCSVMHEALHNHYTQKSLSLSL QVQLVQSGGGLVQAGGSLRLSCAASGRTFSSYAMAWFRQAPGKEREFVAAISWSGANIYVADSVKGRFTISRDNAKDTVYLQMNSLKPEDTAVYYCAVKLGFAPVEERQYDYWGQGTQVTVSSESKYGPPCPPCPAPEAAGGPSVFLFPPKPKDTLMISRTPEVTCVVVDVSQEDPEVQFNWYVDGVEVHNAKTKPREEQFNSTYRVVSVLTVLHQDWLNGKEYKCKVSNKGLPSSIEKTISKAKGQPREPQVCTLPPSQEEMTKNQVSLSCAVKGFYPSDIAVEWESNGQPENNYKTTPPVLDSDGSFFLVSRLTVDKSRWQEGNVFSCSVMHEALHNRFTQKSLSLSL light: QAVVTQESALTTSPGETVTLTCRSSTGAVTTSNYANWVQEKPDHLFTGLIGGTNKRAPGVPARFSGSLIGDKAALTITGAQTEDEAIYFCALWYSNLWVFGGGTKVEIKRTVAAPSVFIFPPSDEQLKSGTASVVCLLNNFYPREAKVQWKVDNALQSGNSQESVTEQDSKDSTYSLSSTLTLSKADYEKHKVYACEVTHQGLSSPVTKSFNRGEC | 3.14 nM | 0.000508 s⁻¹ | 162000 M⁻¹ s⁻¹ |  |  |  |  |
| HER2-CD3 bispecific antibody 504 (bispecific antibody, human IgG4 S228P, kappa, F234A L235A, VHH-knob chain assembled from VHH and knob-Fc with hinge) QVQLVQSGGGLVQAGGSLRLSCAASGRTFSSYAMAWFRQAPGKEREFVAAISWSGANIYVADSVKGRFTISRDNAKDTVYLQMNSLKPEDTAVYYCAVKLGFAPVEERQYDYWGQGTQVTVSSESKYGPPCPPCPAPEAAGGPSVFLFPPKPKDTLMISRTPEVTCVVVDVSQEDPEVQFNWYVDGVEVHNAKTKPREEQFNSTYRVVSVLTVLHQDWLNGKEYKCKVSNKGLPSSIEKTISKAKGQPREPQVYTLPPCQEEMTKNQVSLWCLVKGFYPSDIAVEWESNGQPENNYKTTPPVLDSDGSFFLYSRLTVDKSRWQEGNVFSCSVMHEALHNHYTQKSLSLSL heavy: EVKLLESGGGLVQPKGSLKLSCAASGFTFNTYAMNWVRQAPGKGLEWVARIRSKYNNYATYYADSVKDRFTISRDDSQSILYLQMNNLKTEDTAMYYCVRHGNFGNSYVSWFAYWGQGTLVTVSSASTKGPSVFPLAPCSRSTSESTAALGCLVKDYFPEPVTVSWNSGALTSGVHTFPAVLQSSGLYSLSSVVTVPSSSLGTKTYTCNVDHKPSNTKVDKRVESKYGPPCPPCPAPEAAGGPSVFLFPPKPKDTLMISRTPEVTCVVVDVSQEDPEVQFNWYVDGVEVHNAKTKPREEQFNSTYRVVSVLTVLHQDWLNGKEYKCKVSNKGLPSSIEKTISKAKGQPREPQVCTLPPSQEEMTKNQVSLSCAVKGFYPSDIAVEWESNGQPENNYKTTPPVLDSDGSFFLVSRLTVDKSRWQEGNVFSCSVMHEALHNRFTQKSLSLSL light: QAVVTQESALTTSPGETVTLTCRSSTGAVTTSNYANWVQEKPDHLFTGLIGGTNKRAPGVPARFSGSLIGDKAALTITGAQTEDEAIYFCALWYSNLWVFGGGTKVEIKRTVAAPSVFIFPPSDEQLKSGTASVVCLLNNFYPREAKVQWKVDNALQSGNSQESVTEQDSKDSTYSLSSTLTLSKADYEKHKVYACEVTHQGLSSPVTKSFNRGEC | 2.79 nM | 0.0005 s⁻¹ | 179000 M⁻¹ s⁻¹ |  |  |  |  |
| 305 (TA6), configuration of FIG. 1W (bispecific antibody, IgG4, chains put together from VH/VL, CH1, knob-Fc; IgG4, kappa; also called CEA-CD3 bispecific antibody 305; not shown: kappa light chain constant domain (CL)) heavy: EVQLVQSGAEVKKPGASVKVSCKASGYTFTNYYIHWVRQAPGQGLEWIGWIYPGDGNTKYNEKFKGRATLTADTSTSTAYLELSSLRSEDTAVYYCARDSYSNYYFDYWGQGTLVTVSSASTKGPSVFPLAPCSRSTSESTAALGCLVKDYFPEPVTVSWNSGALTSGVHTFPAVLQSSGLYSLSSVVTVPSSSLGTKTYTCNVDHKPSNTKVDKRVESKYGPPCPPCPAPEAAGGPSVFLFPPKPKDTLMISRTPEVTCVVVDVSQEDPEVQFNWYVDGVEVHNAKTKPREEQFNSTYRVVSVLTVLHQDWLNGKEYKCKVSNKGLPSSIEKTISKAKGQPREPQVYTLPPCQEEMTKNQVSLWCLVKGFYPSDIAVEWESNGQPENNYKTTPPVLDSDGSFFLYSRLTVDKSRWQEGNVFSCSVMHEALHNHYTQKSLSLSL EVQLVESGGGFVQAGESLTLSCTSSTLTFTPYRMAWYRQAPGKQRDLVADISSGDGRTTNYADFAKGRFTISRDNIKNTVFLRMTNLKPEDTAVYYCNTFVSFVGIARSWGQGTQVTVSSESKYGPPCPPCPAPEAAGGPSVFLFPPKPKDTLMISRTPEVTCVVVDVSQEDPEVQFNWYVDGVEVHNAKTKPREEQFNSTYRVVSVLTVLHQDWLNGKEYKCKVSNKGLPSSIEKTISKAKGQPREPQVCTLPPSQEEMTKNQVSLSCAVKGFYPSDIAVEWESNGQPENNYKTTPPVLDSDGSFFLVSRLTVDKSRWQEGNVFSCSVMHEALHNRFTQKSLSLSL light: DIVMTQSPDSLAVSLGERATINCKSSQSLLNSRTRKNYLAWYQQKPGQPPKLLIYWASTRESGVPDRFSGSGSGTDFTLTISSLQAEDVAVYYCTQSFILRTFGQGTKVEIK |  |  |  | 0.267 µg/mL and 2.05 nM | 2.85 nM | 0.00087 s⁻¹ | 324000 M⁻¹ s⁻¹ |
| Knob+Fab-Hole-CEA (106) (bispecific antibody, human IgG4 S228P, kappa, F234A L235A, Anti-CD3 TA1 Fab + anti-CEA VHH C17 on human IgG4 knob-into-hole Fc) ESKYGPPCPPCPAPEAAGGPSVFLFPPKPKDTLMISRTPEVTCVVVDVSQEDPEVQFNWYVDGVEVHNAKTKPREEQFNSTYRVVSVLTVLHQDWLNGKEYKCKVSNKGLPSSIEKTISKAKGQPREPQVYTLPPCQEEMTKNQVSLWCLVKGFYPSDIAVEWESNGQPENNYKTTPPVLDSDGSFFLYSRLTVDKSRWQEGNVFSCSVMHEALHNHYTQKSLSLSL heavy: EVKLLESGGGLVQPKGSLKLSCAASGFTFNTYAMNWVRQAPGKGLEWVARIRSKYNNYATYYADSVKDRFTISRDDSQSILYLQMNNLKTEDTAMYYCVRHGNFGNSYVSWFAYWGQGTLVTVSSASTKGPSVFPLAPCSRSTSESTAALGCLVKDYFPEPVTVSWNSGALTSGVHTFPAVLQSSGLYSLSSVVTVPSSSLGTKTYTCNVDHKPSNTKVDKRVESKYGPPCPPCPAPEAAGGPSVFLFPPKPKDTLMISRTPEVTCVVVDVSQEDPEVQFNWYVDGVEVHNAKTKPREEQFNSTYRVVSVLTVLHQDWLNGKEYKCKVSNKGLPSSIEKTISKAKGQPREPQVCTLPPSQEEMTKNQVSLSCAVKGFYPSDIAVEWESNGQPENNYKTTPPVLDSDGSFFLVSRLTVDKSRWQEGNVFSCSVMHEALHNRFTQKSLSLSLGGGGSGGGGSEVQLVESGGGFVQAGESLTLSCTSSTLTFTPYRMAWYRQAPGKQRDLVADISSGDGRTTNYADFAKGRFTISRDNIKNTVFLRMTNLKPEDTAVYYCNTFVSFVGIARSWGQGTQVTVSS light: QAVVTQESALTTSPGETVTLTCRSSTGAVTTSNYANWVQEKPDHLFTGLIGGTNKRAPGVPARFSGSLIGDKAALTITGAQTEDEAIYFCALWYSNLWVFGGGTKVEIKRTVAAPSVFIFPPSDEQLKSGTASVVCLLNNFYPREAKVQWKVDNALQSGNSQESVTEQDSKDSTYSLSSTLTLSKADYEKHKVYACEVTHQGLSSPVTKSFNRGEC |  |  |  | 0.69 µg/mL and 5.31 nM | 0.589 nM | 0.000215 s⁻¹ | 366000 M⁻¹ s⁻¹ |
